Results: the supplement of paper PMC9170038

Tested on: MS2 coat protein
Assay: apparent KD of MS2 coat protein; designed switch direction (-1 OFF switch, 1 ON switch): 1; higher = weaker reporter binding
Summary of the method: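 Designed RNA switches were transcribed on Illumina chips by stalled E. coli RNA polymerase and titrated with SNAP-549-labelled MS2 coat protein from 0.7 or 1.5 nM, doubling to 3 µM. Step length ran from 0.8–1.5 h at the lowest concentration to 10–20 min at the highest. The apparent KD is the median over clusters for each design, from curve-fitted normalised cluster fluorescence.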

[1] = Eterna round: R95, input ligand: FMN 200 uM
[2] = Eterna round: R95, input ligand: microRNA oligo, concentration not stated
[3] = Eterna round: R95, input ligand: none
[4] = input ligand: microRNA oligo, concentration not stated

Sequence	apparent KD of MS2 coat protein [1]	apparent KD of MS2 coat protein [2]	apparent KD of MS2 coat protein [3]	apparent KD of MS2 coat protein (input ligand: FMN 200 uM)	apparent KD of MS2 coat protein [4]	apparent KD of MS2 coat protein (input ligand: none)
AUAAAACAUGAGGAUCACCCAUGUCAACAAAGUCGAGGAUAUGGGCAAAUAAAAUAAUAACCAGAAGGCGAAUAAU [salish99_ss1_r3_018] (puzzle: Same State 1)	63.9 nM	232 nM	546 nM	–	–	–
AUAAAACAUGAGGAUCACCCAUGUCAACAAUGUCGAGGAUAUGGGCAAAUAAAAUAAGAACCAGAAGGCGAAUAAU [salish99_ss1_r3_039] (puzzle: Same State 1)	43.2 nM	248 nM	507 nM	–	–	–
AUAAAACAUGAGGAUCACCCAUGUCUACAAAGUCGAGGAUAUGGGCAAAUAAUAUAAGAACCAGAAGGCGAAUAAU [SS1 Teenbexe 1] (puzzle: Same State 1)	54.2 nM	565 nM	14400 nM	–	–	–
AUAAGGCAAGCUUUUUUCUCGUAGUGUAAACAUGAGGAUCACCCAUGUGCCCACCCUGGAUCUUUGGAUCCCAGAAC [Sobeedbeon] (puzzle: Sensor for hsa-mir-208a)	23 nM	15.3 nM	22.4 nM	–	–	–
AUAAGUUCGAUGCUCGUCUUUCCGUACAAACAUGAGGAUCACCCAUGUGAUCGGGAAGUAGCCCGAUCAGUAUGGCC [Leceen] (puzzle: Sensor for hsa-mir-208a)	30.6 nM	16.3 nM	27.5 nM	–	–	–
AUAAUAAGGACAGGAUAUGGGAAAGGAAGUGUACUAGAAGGGUCGAGAAGACCAGAACAUGAGGAUCACCCAUGUGAUGGGAAA [PowerStrip SSNG 1.28] (Eterna round: R96, puzzle: Same State NG 1)	–	–	–	21.7 nM	23.3 nM	36.1 nM
AUAAUAAUAAGUGAGGAUAUGUUGAUAAAGACAUGAGGAUCACCCAUGUGAAAUAAAAUAAUAAUACAGAAGGCACAAUAAUAAA [JMF's solution 2] (puzzle: Same State 2)	25.6 nM	38.7 nM	27.9 nM	–	–	–
AUACAUGAGGAUCACCCAUGUAAUUAAUUAAUUAAUAAGAUCUAGGAUAUCAGCUCGUUUAGAGCUGAGAAGGAGAUCACAUGU [SSNG3/21-B3] (Eterna round: R96, puzzle: Same State NG 3)	–	–	–	–	19.8 nM	–
AUACCAUCGGGAGGAUAUGGCACCUUAUUGGUGCCAGAAGGUCUAACAUGAGGAUCACCCAUGUGGGAGUGGUCUAAUGACCAC [Eli NG1ss - 87] (Eterna round: R96, puzzle: Same State NG 1)	–	–	–	144 nM	127 nM	186 nM
AUACUCAUGUAAGGAUAUGCAGCCGAAACGGCUGCAGAAGGUACUAUAAUACAUGAGGAUCACCCAUGUCUCUAUUAUUUAGUU [Mat - Same State NG 1 - JL mod - D98] (Eterna round: R96, puzzle: Same State NG 1)	–	–	–	89.5 nM	46.5 nM	101 nM
AUAGUUUCCGAAGGAUAUGAUGAGGAUCACCCAUCAGAAGGUUGGCUAUUGGGUGGACAUGAGGAUCACCCAUGUCUUUCUGUU (Eterna round: R96, puzzle: Same State NG 1)	–	–	–	29.7 nM	39.1 nM	53.6 nM
AUCCUACAUGAGGAUCACCCAUGUGACGCCUCAAUAGGAUAUCGGGCCCACAGUCAGGAACGAGAAGGAUUGAAGC [Digerier] (puzzle: Same State 1)	67.5 nM	29.3 nM	66.7 nM	–	–	–
AUGGUGCAGGUACAGGAUAUGUUGCUCGUAACAUGAGGAUCACCCAUGUACCUAUGAGAUUAAAUGCAGAAGGGUGCACACCAAA [Mat - Same State 2 - Mod of UCT - D90] (Eterna round: R96, puzzle: Same State 2)	–	–	–	38.1 nM	224 nM	1350 nM
AUGGUGCAGGUACAGGAUAUGUUGCUCGUAACAUGAGGAUCACCCAUGUACCUAUGAGAUUAAAUGCAGAAGGGUGCACACCAAA [Mat - Same State 2 - Mod of UCT - D90] (puzzle: Same State 2)	39.7 nM	507 nM	707 nM	–	–	–
AUUAAACAUGAGGAUCACCCAUGUCAUCAAAGUCGAGGAUAUGGGCAAAUAAAAUAAGAACCAGAAGGCGAAUAAU [salish99_ss1_r3_073] (puzzle: Same State 1)	69.6 nM	122 nM	269 nM	–	–	–
AUUAAUAAUCUAGGAUAUCACGUCGUUUAGACGUGAGAAGGAGAUCAUAACAUGAGGAUCACCCAUGUAUUACAUGAAGUUAAU [SSNG1/7-B3] (Eterna round: R96, puzzle: Same State NG 1)	–	–	–	22.2 nM	27.8 nM	37.5 nM
